# Patent US20240293544A1 (KIROMIC BIOPHARMA, published 2024)
# B1: 1B6 monoclonal antibody (Binding Molecule A) (antibody, V domains shown)
# VH: EVKLVESGGGLVKPGGSLKLSCEASGFTFSRYAMSWVRHTPEKRLAWVASITFGGDPYYPDGLKGRFTISRDNTRNILYLQMNSLRSEDTAMYYCVRHESWFAYWGQGTLVTVSA
# VL: DVLMTQTPLSLPVSLGEQVSISCRSSQTIVHTDGNIYLEWYLQNPGQSPRLLIYKISNRFSGVPDRFSGSGSGTDFTLKISRVEAEDLGIYYCFQASHVPYTFGGGTKLEIK
# notes: also called 1B6 antibody; 1B6 mAb
# Key:
# [1] = target: T1, Mesothelin (MSLN) Isoform 1, antigen of the ELISA (human, UniProt Q13421 296-598, limits assumed); assay: ELISA
# T1 construct: also called Mesothelin canonical polypeptide
# T1 sequence (Q13421 other isoform, or with tags, fused parts or gaps limits assumed): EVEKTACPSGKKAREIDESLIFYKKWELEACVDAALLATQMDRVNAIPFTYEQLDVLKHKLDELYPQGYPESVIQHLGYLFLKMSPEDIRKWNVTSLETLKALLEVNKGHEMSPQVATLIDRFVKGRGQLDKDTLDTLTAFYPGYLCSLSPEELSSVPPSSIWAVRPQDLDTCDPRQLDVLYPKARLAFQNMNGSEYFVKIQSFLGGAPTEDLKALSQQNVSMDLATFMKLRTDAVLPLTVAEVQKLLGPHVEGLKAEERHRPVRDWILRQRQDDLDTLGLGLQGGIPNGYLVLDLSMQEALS
# [2] = target: T2, Mesothelin Isoform 2 (IsoMSLN), antigen of the ELISA (human, UniProt Q13421 37-598); assay: ELISA
# T2 construct: also called MSLN Isoform 2; mesothelin isoform-2 polypeptide
# T2 sequence (Q13421 37-606 limits assumed, form in doubt): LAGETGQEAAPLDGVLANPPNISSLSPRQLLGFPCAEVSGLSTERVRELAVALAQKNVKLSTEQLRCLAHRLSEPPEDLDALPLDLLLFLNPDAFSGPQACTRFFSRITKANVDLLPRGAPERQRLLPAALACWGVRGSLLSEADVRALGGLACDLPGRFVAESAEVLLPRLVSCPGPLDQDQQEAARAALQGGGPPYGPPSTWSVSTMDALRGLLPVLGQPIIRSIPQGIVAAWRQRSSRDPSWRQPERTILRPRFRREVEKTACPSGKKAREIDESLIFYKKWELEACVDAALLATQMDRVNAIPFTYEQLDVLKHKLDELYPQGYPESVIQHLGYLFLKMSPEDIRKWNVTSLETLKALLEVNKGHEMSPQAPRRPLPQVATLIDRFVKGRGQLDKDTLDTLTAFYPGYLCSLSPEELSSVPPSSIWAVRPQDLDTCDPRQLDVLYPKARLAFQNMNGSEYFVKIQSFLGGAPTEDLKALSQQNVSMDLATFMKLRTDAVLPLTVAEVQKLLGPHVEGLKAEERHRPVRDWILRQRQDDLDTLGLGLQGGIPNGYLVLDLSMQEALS
binder,measurement,setting,value
B1,binding result,[1],no binding
same,EC50,[2],0.073 µg/mL
